Assay results: patent US20210253643A1, “HYDROPHOBIC BIOMOLECULE STABILIZING SCAFFOLD PEPTIDES AND METHODS OF MAKING AND USING SAME” (The University of British Columbia, priority 2018, published 2021)
No end group written: not given here.

Experiments:
FhuA (E. coli), P06971 [1] = target: T1, FhuA (E. coli), P06971; test: density of the FhuA band of FIG. 19B plotted against log(mol NSPr/mol FhuA); half-maximal reconstitution ratio RR50
T1 chain: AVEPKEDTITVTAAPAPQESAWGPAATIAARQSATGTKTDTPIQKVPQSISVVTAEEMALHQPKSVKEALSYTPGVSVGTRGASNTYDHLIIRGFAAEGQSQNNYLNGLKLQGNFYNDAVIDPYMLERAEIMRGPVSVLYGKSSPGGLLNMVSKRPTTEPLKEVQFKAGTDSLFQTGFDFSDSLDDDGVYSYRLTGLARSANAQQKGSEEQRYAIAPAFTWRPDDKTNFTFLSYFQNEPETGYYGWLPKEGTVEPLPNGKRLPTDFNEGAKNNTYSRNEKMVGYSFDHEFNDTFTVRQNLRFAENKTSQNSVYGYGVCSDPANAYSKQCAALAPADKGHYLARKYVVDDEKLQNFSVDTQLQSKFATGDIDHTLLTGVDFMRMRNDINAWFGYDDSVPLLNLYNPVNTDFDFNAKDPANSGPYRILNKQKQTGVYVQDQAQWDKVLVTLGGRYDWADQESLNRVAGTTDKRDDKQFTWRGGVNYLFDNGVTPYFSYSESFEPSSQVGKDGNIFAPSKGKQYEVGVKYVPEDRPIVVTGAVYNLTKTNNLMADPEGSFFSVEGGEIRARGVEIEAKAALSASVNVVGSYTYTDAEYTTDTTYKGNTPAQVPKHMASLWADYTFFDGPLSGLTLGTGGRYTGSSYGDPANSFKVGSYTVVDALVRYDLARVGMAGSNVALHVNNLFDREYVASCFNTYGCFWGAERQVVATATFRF

MalFGK2, P02916 [2] = test: BN-PAGE of MalFGK2-NSPr, time 0 hr of incubation at 30 °C
MalFGK2, P02916 [3] = test: BN-PAGE of MalFGK2-NSPr after 1 hr of incubation at 30 °C
MalFGK2, P02916 [4] = test: BN-PAGE of MalFGK2-NSPr after 2 hr of incubation at 30 °C
MalFGK2, P02916 [5] = test: BN-PAGE of MalFGK2-NSPr after 3 hr of incubation at 30 °C
MalFGK2, P02916 [6] = test: SDS-PAGE densitometry of purified peptidisc against an NSPr standard curve
[7] = target: photosynthetic bacterial reaction center (BRC) from Rhodobacter sphaeroides (Rhodobacter sphaeroides), P0C0Y9; test: as above
SecYEG complex, P0AGA2 = target: T2, SecYEG complex, P0AGA2; test: in-gel reconstitution, CN-PAGE titration of NSPr, Boltzmann fit
T2 chain 1: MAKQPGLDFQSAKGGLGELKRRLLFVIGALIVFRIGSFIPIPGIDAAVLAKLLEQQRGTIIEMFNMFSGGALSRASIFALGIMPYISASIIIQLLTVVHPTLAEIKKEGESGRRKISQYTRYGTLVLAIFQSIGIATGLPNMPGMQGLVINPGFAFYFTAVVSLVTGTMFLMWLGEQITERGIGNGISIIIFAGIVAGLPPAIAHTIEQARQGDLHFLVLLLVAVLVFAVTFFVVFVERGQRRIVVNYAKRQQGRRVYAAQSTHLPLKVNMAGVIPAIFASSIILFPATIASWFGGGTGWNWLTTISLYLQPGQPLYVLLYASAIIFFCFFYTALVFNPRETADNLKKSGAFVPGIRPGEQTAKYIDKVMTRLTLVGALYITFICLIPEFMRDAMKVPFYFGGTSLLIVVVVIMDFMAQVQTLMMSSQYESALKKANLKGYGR
T2 chain 2: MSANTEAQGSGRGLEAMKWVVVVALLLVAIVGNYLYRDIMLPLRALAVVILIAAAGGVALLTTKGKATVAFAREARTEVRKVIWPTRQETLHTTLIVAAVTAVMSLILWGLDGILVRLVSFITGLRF
T2 chain 3: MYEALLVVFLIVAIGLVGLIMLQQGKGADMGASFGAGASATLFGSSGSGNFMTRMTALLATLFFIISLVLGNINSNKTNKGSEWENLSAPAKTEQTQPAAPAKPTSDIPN

MalFGK2, P02916 [8] = test: as above
FhuA (E. coli), P06971 [9] = target: T1, FhuA (E. coli), P06971; test: as above
[10] = target: T3, trimeric OmpF porin (E. coli), P02931; test: as above
T3 chain: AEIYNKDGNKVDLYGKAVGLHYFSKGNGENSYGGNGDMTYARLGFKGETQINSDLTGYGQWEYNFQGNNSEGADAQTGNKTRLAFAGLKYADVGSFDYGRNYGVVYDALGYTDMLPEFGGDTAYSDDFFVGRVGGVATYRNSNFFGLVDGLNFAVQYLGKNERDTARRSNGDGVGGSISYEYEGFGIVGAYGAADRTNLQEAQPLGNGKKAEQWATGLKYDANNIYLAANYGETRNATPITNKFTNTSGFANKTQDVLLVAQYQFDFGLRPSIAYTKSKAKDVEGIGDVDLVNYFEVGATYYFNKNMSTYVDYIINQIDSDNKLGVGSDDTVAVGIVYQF

FhuA (E. coli), P06971 [11] = target: T1, FhuA (E. coli), P06971; test: western blot with streptavidin-Alexa 680 of peptidisc made with NSPrbio, against a standard curve
membrane proteins = test: on-gel reconstitution, competitor equimolar NSPr-FAM; 0 no, 100 full competition

MalFGK2, P02916, sequence (P02916 whole entry, chain 1 of 3): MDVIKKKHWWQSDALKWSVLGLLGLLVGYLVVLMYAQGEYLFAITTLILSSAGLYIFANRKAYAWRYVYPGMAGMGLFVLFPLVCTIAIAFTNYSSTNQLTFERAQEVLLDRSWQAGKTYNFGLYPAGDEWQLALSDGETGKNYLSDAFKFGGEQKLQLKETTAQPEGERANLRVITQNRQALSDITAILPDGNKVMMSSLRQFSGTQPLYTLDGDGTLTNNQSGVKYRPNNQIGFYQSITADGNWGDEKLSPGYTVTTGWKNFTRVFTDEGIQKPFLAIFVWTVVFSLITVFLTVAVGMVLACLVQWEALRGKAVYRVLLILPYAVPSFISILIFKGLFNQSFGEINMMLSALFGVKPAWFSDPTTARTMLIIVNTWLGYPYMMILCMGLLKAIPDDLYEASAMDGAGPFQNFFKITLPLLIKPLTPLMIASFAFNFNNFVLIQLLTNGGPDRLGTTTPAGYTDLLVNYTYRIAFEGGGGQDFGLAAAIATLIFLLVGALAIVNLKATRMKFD
MalFGK2, P02916, sequence (P68183 whole entry, chain 2 of 3, further chain): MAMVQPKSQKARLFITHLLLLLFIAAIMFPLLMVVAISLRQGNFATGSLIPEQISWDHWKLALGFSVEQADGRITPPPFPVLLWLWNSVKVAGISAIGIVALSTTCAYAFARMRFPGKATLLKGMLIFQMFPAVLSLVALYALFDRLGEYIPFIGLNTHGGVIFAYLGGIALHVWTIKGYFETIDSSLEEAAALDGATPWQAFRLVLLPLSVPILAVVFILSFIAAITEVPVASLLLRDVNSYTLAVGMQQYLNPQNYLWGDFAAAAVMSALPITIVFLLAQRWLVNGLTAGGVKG
MalFGK2, P02916, sequence (P68187 whole entry, chain 3 of 3, further chain): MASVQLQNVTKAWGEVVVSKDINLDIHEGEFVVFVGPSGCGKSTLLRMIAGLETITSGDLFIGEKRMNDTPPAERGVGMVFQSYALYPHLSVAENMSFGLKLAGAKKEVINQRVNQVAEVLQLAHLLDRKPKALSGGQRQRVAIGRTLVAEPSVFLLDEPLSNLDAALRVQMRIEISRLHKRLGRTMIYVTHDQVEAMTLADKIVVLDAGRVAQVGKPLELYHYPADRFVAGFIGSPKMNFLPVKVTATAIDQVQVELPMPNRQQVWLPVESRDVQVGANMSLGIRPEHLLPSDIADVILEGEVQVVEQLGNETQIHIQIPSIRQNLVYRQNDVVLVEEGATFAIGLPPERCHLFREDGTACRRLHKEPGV

FAEKFKEAVKDYFAKFWDPAAEKLKEAVKDYFAKLWD (modifications not checked) [NSPr]
EC50 (read off the curve) (mol NSPr/mol FhuA) (FhuA (E. coli), P06971 [1]): 20 | (%) of the MalFGK2 Peptidisc band (MalFGK2, P02916 [2]): 100% | (%) of the MalFGK2 Peptidisc band (MalFGK2, P02916 [3]): 89% | (%) of the MalFGK2 Peptidisc band (MalFGK2, P02916 [4]): 86% | (%) of the MalFGK2 Peptidisc band (MalFGK2, P02916 [5]): 84% | Measured NSPr stoichiometry (NSPr/disc) (MalFGK2, P02916 [6]): 10 NSPr/disc | Measured NSPr stoichiometry (NSPr/disc) [7]: 9 NSPr/disc | RR50 (half-maximal reconstitution molar ratio) (mol NSPr/mol protein) (SecYEG complex, P0AGA2): 20 | RR50 (half-maximal reconstitution molar ratio) (mol NSPr/mol protein) (MalFGK2, P02916 [8]): 20 | RR50 (half-maximal reconstitution molar ratio) (mol NSPr/mol protein) (FhuA (E. coli), P06971 [9]): 20 | RR50 (half-maximal reconstitution molar ratio) (mol NSPr/mol protein) [10]: 20

FAEKFKEAVKDYFAKFWDPAAEKLKEAVKDYFAKLWD (not fully specified (N-terminus)) [NSPr-biotin]
Measured NSPr stoichiometry (NSPr/disc) (FhuA (E. coli), P06971 [11]): 10 NSPr/disc

DWLKAFYDKVAEKLKEAAPDWFKAFYDKVAEKFKEAF (not fully specified (N-terminus, C-terminus)) [Ac-NSP-NH2]
Competition peptide (% NSPr-FAM) (membrane proteins): 10%
